Results taken from article PMC5421877, “SOCS3 inhibits the pathological effects of IL-22 in non-melanoma skin tumor-derived keratinocytes” (Oncotarget, 2017).

Experiments:
[1] = test system: Jak1 phosphorylation; assay: IP/WB of Jak1 phosphorylation in healthy keratinocytes (IL-22); assay type: cell-based, human; conditions: IL-22 10 min, no peptide, n = 3
Experimental: Figure 5 KIR-ESS peptide inhibits IL-22-induced phosphorylation of STAT3 and Erk in healthy and SCC-derived keratinocytes (A) Protein extracts obtained from healthy keratinocytes (n = 3) pre-treated or not with 15 μM (left panel) or 75 μM (right panel), KIR, KIR-ESS and control (Ctrl1 or Ctrl2) peptides, and, then, stimulated or not with IL-22 for 20 min, were subjected to WB analysis to detect STAT3 (Tyr705), Erk and MEK phosphorylation. Filters were probed with anti-STAT3, -Erk and –MEK Abs (top). (B) Protein extracts obtained from healthy keratinocytes (n = 3) pre-treated or not with 75 μM KIR-ESS and control (Ctrl1) peptides, and, then, stimulated or not with IL-22 for 10 min, were subjected to immunoprecipitation for IL-22R1 and Jak1, and then analysed by WB to detect phosphorylated and unphosphorylated forms of the proteins. (C) Unphosphorylated and phosphorylated forms of STAT1 (Tyr701) and STAT3 (Tyr705) were monitored in keratinocytes treated with IFN-γ for 15 min by WB analysis (bottom). In all experimental groups, filters were stripped and re-probed with β-actin Ab. (D) Protein extracts were obtained from CAL27 (left panel) or CAL33 (right panel) lines treated or not with 75 μM peptides in presence of IL-22 or IFN-γ. WB was performed to detect basal and phosphorylated STAT1, STAT3 and Erk. […]

[2] = test system: STAT3 phosphorylation in BCC and SCC lines; assay: phospho-STAT3 levels in transformed keratinocyte lines (IL-22); assay type: cell-based; conditions: BCC (n = 2) and SCC (n = 5) lines vs healthy strains (n = 5), IL-22 time course
Experimental: Figure 4 SOCS3 and SOCS1 are poorly expressed in the epidermis of NMSC lesions and are not induced in transformed keratinocytes by IL-22 (A) Immunohistochemistry for SOCS3 and SOCS1 (red staining) was performed respectively on frozen or paraffin-embedded sections from biopsies of healthy skin (i), NLS (ii, iii) and LS (iv, v) areas of BCC and SCC, specimens. Psoriatic skin biopsies were also analyzed (vi). Sections were counterstained with Mayer's H&E and were visually evaluated by an pathologist experienced in dermatology. One out of four representative staining is shown. Scale bars, […]. (B) Graphs show SOCS3 and SOCS1 mRNA levels which were detected by real-time PCR analysis in cultured SCC (CAL27 and CAL33) and BCC (M77015) skin tumor lines left untreated or stimulated with IL-22 or IFN-γ for 3 h and normalized for β-actin mRNA expression levels. All data were obtained from three independent experiments. […] SOCS1 was detected by IP using a specific anti-SOCS1 Ab, whereas SOCS3 by WB with an anti-SOCS3 Ab. […] Densitometric intensity (D.I.) of SOCS1 or SOCS3/β-actin was calculated from three independent experiments and numerically expressed as D. I. Ratio. *p < 0.01; **p < 0.05. […] SOCS3 and phospho-Tyr STAT3 levels were detected by WB and normalized to β-actin levels. […]

B1: IL-22: cytokine stimulus, R&D Systems (protein, UniProt Q9GZX6 34-179, looked up)
Interleukin-22: APISSHCRLDKSNFQQPYITNRTFMLAKEASLADNNTDVRLIGEKLFHGVSMSERCYLMKQVLNFTLEEVLFPQSDRFQPYMQEVVPFLARLSNRLSTCHIEGDDLHIQRNVQKLKDTVKKLGESGEIKAIGELDLLFMSLRNACI
B1 was tested, and the Jak1 phosphorylation induced [1] was “induced molecular cascade implicating phosphorylation of IL-22R1, Tyk2 and Jak1” and the phospho-STAT3 levels [2] was “higher compared to healthy cells, and showed a long-lasting activation”.
